Data on six substances can be found in patent US20120316071A1.

Test [1] deals with Recombinant Human DLL4 (R&D Systems Cat#1506-D4/CF) (human) (UniProt Q9NR61). Nature of the test: Multispot ECL (MSD), antigen spotted on plate, Fab […]; blank spot 6344.
The target in test [2] is rHuman ErbB2/Fc Chimera, CF (R&D Systems Cat#1129-ER) (human) (UniProt P04626). The test is described as above.
For test [3], the target named is rHuman P-Cadherin/Fc Chimera, CF (R&D Systems Cat#861-PC) (human) (UniProt P22223). The description is as above.
For test [4], the target named is Recombinant Human DLL4 (R&D Systems Cat#1506-D4/CF) (human) (UniProt Q9NR61). Nature of the test: Multispot ECL (MSD), antigen spotted on plate, Fab 0.00391 uM; blank spot 576.
Test [5] deals with rHuman ErbB2/Fc Chimera, CF (R&D Systems Cat#1129-ER) (human) (UniProt P04626). The description is as above.
Test [6] has as its target rHuman P-Cadherin/Fc Chimera, CF (R&D Systems Cat#861-PC) (human) (UniProt P22223). The description is as above.
For test [7], the target named is Recombinant Human DLL4 (R&D Systems Cat#1506-D4/CF) (human) (UniProt Q9NR61). Nature of the test: Multispot ECL (MSD), antigen spotted on plate, Fab 0.01563 uM; blank spot 906.
Test [8] concerns the target rHuman ErbB2/Fc Chimera, CF (R&D Systems Cat#1129-ER) (human) (UniProt P04626). Described as above.
In test [9] the target is rHuman P-Cadherin/Fc Chimera, CF (R&D Systems Cat#861-PC) (human) (UniProt P22223). The description is as above.
For test [10], the target named is Recombinant Human DLL4 (R&D Systems Cat#1506-D4/CF) (human) (UniProt Q9NR61). Nature of the test: Multispot ECL (MSD), antigen spotted on plate, Fab 0.0625 uM; blank spot 1738.
Test [11] addresses rHuman ErbB2/Fc Chimera, CF (R&D Systems Cat#1129-ER) (human) (UniProt P04626). The test is described as above.
The target in test [12] is rHuman P-Cadherin/Fc Chimera, CF (R&D Systems Cat#861-PC) (human) (UniProt P22223). The description is as above.
For test [13], the target named is rHuman ErbB2/Fc Chimera, CF (R&D Systems Cat#1129-ER) (human) (UniProt P04626). Nature of the test: MSD multispot ECL, antigen spotted on plate; Fab 1.19 uM; blank spot 24999.
The target of test [14] is rHuman HGF R/c-MET/Fc Chimera, CF (R&D Systems Cat#358-MT/CF) (human) (UniProt P08581). The description is as above.
Test [15] has as its target rHuman IGF-1 sR, CF (R&D Systems Cat#391-GR) (human) (UniProt P08069). The description is as above.
For test [16], the target named is rHuman ErbB2/Fc Chimera, CF (R&D Systems Cat#1129-ER) (human) (UniProt P04626). Nature of the test: MSD multispot ECL, antigen spotted on plate; Fab 0.2975 uM; blank spot 5019.
Test [17] concerns the target rHuman HGF R/c-MET/Fc Chimera, CF (R&D Systems Cat#358-MT/CF) (human) (UniProt P08581). The description is as above.
Test [18] concerns the target rHuman IGF-1 sR, CF (R&D Systems Cat#391-GR) (human) (UniProt P08069). The description is as above.
For test [19], the target named is rHuman ErbB2/Fc Chimera, CF (R&D Systems Cat#1129-ER) (human) (UniProt P04626). Nature of the test: MSD multispot ECL, antigen spotted on plate; Fab 0.01859 uM; blank spot 1776.
The target in test [20] is rHuman HGF R/c-MET/Fc Chimera, CF (R&D Systems Cat#358-MT/CF) (human) (UniProt P08581). The description is as above.
Test [21] concerns the target rHuman IGF-1 sR, CF (R&D Systems Cat#391-GR) (human) (UniProt P08069). The test is described as above.
Test [22] concerns the target rHuman ErbB2/Fc Chimera, CF (R&D Systems Cat#1129-ER) (human) (UniProt P04626). Nature of the test: MSD multispot ECL, antigen spotted on plate; Fab 0.07438 uM; blank spot 2504.
For test [23], the target named is rHuman HGF R/c-MET/Fc Chimera, CF (R&D Systems Cat#358-MT/CF) (human) (UniProt P08581). The description is as above.
Test [24] deals with rHuman IGF-1 sR, CF (R&D Systems Cat#391-GR) (human) (UniProt P08069). The description is as above.
Test [25] deals with Recombinant Human DLL4 (R&D Systems Cat#1506-D4/CF) (human) (UniProt Q9NR61). Nature of the test: ECL multispot (MSD) assay, antigen spotted on plate, 20 nM Fab.
Test [26] has as its target rHuman CD44/Fc Chimera, CF (R&D Systems Cat#3660-CD) (human) (UniProt P16070). Described as above.
Test [27] has as its target rHuman EGF R/Fc Chimera, CF (R&D Systems Cat#344-ER) (human) (UniProt P00533). The description is as above.
The target of test [28] is rHuman IGF-1 sR, CF (R&D Systems Cat#391-GR) (human) (UniProt P08069). The test is described as above.
Test [29] concerns the target rHuman Notch-1/Fc Chimera, CF (R&D Systems Cat#3647-TK) (human) (UniProt P46531). The description is as above.
For test [30], the target named is rHuman P-Cadherin/Fc Chimera, CF (R&D Systems Cat#861-PC) (human) (UniProt P22223). The description is as above.
The target of test [31] is Recombinant Human DLL4 (R&D Systems Cat#1506-D4/CF) (human) (UniProt Q9NR61). Nature of the test: ECL Multispot (MSD), antigen spotted, Fab.
For test [32], the target named is rHuman ErbB2/Fc Chimera, CF (R&D Systems Cat#1129-ER) (human) (UniProt P04626). Nature of the test: ECL Multispot (MSD), antigen spotted, Fab.
The target in test [33] is rHuman Erythropoietin R/Fc Chimera, CF (R&D Systems Cat#963-ER) (human) (UniProt P19235). Nature of the test: ECL Multispot (MSD), antigen spotted, Fab.
In test [34] the target is rHuman HGF R/c-MET/Fc Chimera, CF (R&D Systems Cat#358-MT/CF) (human) (UniProt P08581). Nature of the test: ECL Multispot (MSD), antigen spotted, Fab.
Test [35] addresses rHuman IGF-1 sR, CF (R&D Systems Cat#391-GR) (human) (UniProt P08069). Nature of the test: ECL Multispot (MSD), antigen spotted, Fab.
Test [36] concerns the target rHuman Notch-1/Fc Chimera, CF (R&D Systems Cat#3647-TK) (human) (UniProt P46531). Nature of the test: ECL Multispot (MSD), antigen spotted, Fab.
Test [37] concerns the target rHuman P-Cadherin/Fc Chimera, CF (R&D Systems Cat#861-PC) (human) (UniProt P22223). Nature of the test: ECL Multispot (MSD), antigen spotted, Fab.
In test [38] the target is rHuman CD44/Fc Chimera, CF (R&D Systems Cat#3660-CD) (human) (UniProt P16070). Nature of the test: ECL Multispot (MSD), antigen spotted, Fab.
Test [39] concerns the target rHuman EGF R/Fc Chimera, CF (R&D Systems Cat#344-ER) (human) (UniProt P00533). Nature of the test: ECL Multispot (MSD), antigen spotted, Fab.
In test [40] the target is Recombinant Human DLL4 (R&D Systems Cat#1506-D4/CF) (human) (UniProt Q9NR61). Nature of the test: ECL multispot (MSD), antigen spotted, Fab in solution.
In test [41] the target is rHuman CD44/Fc Chimera, CF (R&D Systems Cat#3660-CD) (human) (UniProt P16070). The test is described as above.
Test [42] concerns the target rHuman EGF R/Fc Chimera, CF (R&D Systems Cat#344-ER) (human) (UniProt P00533). The test is described as above.
Test [43] concerns the target rHuman ErbB2/Fc Chimera, CF (R&D Systems Cat#1129-ER) (human) (UniProt P04626). The test is described as above.
The target of test [44] is rHuman Erythropoietin R/Fc Chimera, CF (R&D Systems Cat#963-ER) (human) (UniProt P19235). The test is described as above.
Test [45] addresses rHuman HGF R/c-MET/Fc Chimera, CF (R&D Systems Cat#358-MT/CF) (human) (UniProt P08581). The test is described as above.
Test [46] deals with rHuman IGF-1 sR, CF (R&D Systems Cat#391-GR) (human) (UniProt P08069). The description is as above.
Test [47] deals with rHuman Notch-1/Fc Chimera, CF (R&D Systems Cat#3647-TK) (human) (UniProt P46531). The description is as above.
Test [48] has as its target rHuman P-Cadherin/Fc Chimera, CF (R&D Systems Cat#861-PC) (human) (UniProt P22223). The description is as above.

Take “Fab VH1-46_IGHD2-15*01_IGHJ2*01 & L2_IGKJ1*01”: the ECL signal in [1] came out at 27700; in test [2], 29600; in [3], 25500; in test [4] it was 1550; in test [5], 1670; in test [6], 1960. Moreover, the ECL signal in test [7] was found to be 4020; in [8] it was 4500; in [9], 4940; in test [10], 8050; in test [11] it was 9030; in test [12], 7740.
Regarding “Fab VH1-46_IGHD6-13*01_IGHJ4*01 & L2_IGKJ1*01”, the ECL signal in [13] amounted to 38400; in test [14], 45500; in test [15], 35200; in [16] it was 15100; in test [17], 17400; in test [18], 17400. For the same substance, the ECL signal stood at 5530 in [19]; 4570 in test [20]; 3780 in test [21]; 7550 in test [22]; 6610 in test [23]; 5800 in test [24].
On to “Fab VH3-23_IGHD2-21*01>3_IGHJ6*01 H100E/S108P V64A & V2-13_IGLJ2*01”, for which the ECL signal/blank ratio (read-out not given) in test [25] is 2.7; in [26] it was 2.2; in [27] it was 9.1; in test [28] it was 1.2; in test [29] it was 3; in test [30], 30.6.
As to “Fab VH3-23_IGHD3-10*01>3_IGHJ6*01 Y112A & O12_IGKJ1*01”, the ECL signal/blank ratio in test [31] stood at 1.2; in test [32], 1.3; in test [33], 1.6; in [34], 0.8; in test [35], 1.4; in test [36] it was 1.1. Moreover, the ECL signal/blank ratio in [37] is 1.1.
For “Fab VH3-23_IGHD3-10*01>3_IGHJ6*01 Y112G & O12_IGKJ1*01”, the ECL signal/blank ratio came out at 2.2 in test [31]; 2.5 in [38]; 2.1 in [39]; 1.6 in [33]; 2.3 in [34]; 2.3 in test [35]. For the same substance, the values for the ECL signal/blank ratio in [36] and in test [37] were 3.3 and 1.4, respectively.
Regarding “Fab VH3-23_IGHD3-10*01>3_IGHJ6*01 Y112V & O12_IGKJ1*01”, the ECL signal/blank ratio in test [40] stood at 2; in test [41], 1; in test [42], 1.2; in test [43], 1.6; in [44], 4.3; in [45], 1.3. Moreover, the ECL signal/blank ratio is 0.8 in test [46], 1.4 in test [47] and 9.8 in test [48].
